In patent publication US20070066516A1, “Compounds comprising cyclized somatostatin receptor binding peptides” (priority 2005, published 2007):
Read-outs that look alike come from different tables or passages of the source. Where a SMILES comes first, the peptide text is derived from it. Bridges are numbered along the chain shown (N, C = ends). Roman numbers before positions name the chains, in order. Where no end group is shown, it is not given here. [ ]: non-standard residue; d: D form. βDpr = 2,3-diaminopropanoic acid whose beta-amino group bears the -CH2CO- link to the S of (NMe)hCys; GlyMeDOTA = DOTA chelator on the lysine side chain; Tpi = O=C(O)[C@@H]1Cc2c([nH]c3ccccc23)CN1; βAla(cyclopropyl) = beta-Ala(cyclopropyl); Phe(4-NH2) = Nc1ccc(C[C@H](N)C(=O)O)cc1; 1Nal = N[C@@H](Cc1cccc2ccccc12)C(=O)O; NMeF = CN[C@@H](Cc1ccccc1)C(=O)O; NMehCys = CN[C@@H](CCS)C(=O)O; Dap = NC[C@H](N)C(=O)O

Experiments:
SSTR5 = SSTR5 (Homo sapiens, UniProt P35346); assay: Radioligand binding assay on membranes of CHO-K1 cells expressing SSTR5; conditions: for IC50: membranes from CHO-K1 cells stably expressing cloned somatostatin receptor 5; for Ratio 2/5 in %: ratio of IC50 SSTR2 / IC50 SSTR5 in %
SSTR5, sequence (P35346 whole entry): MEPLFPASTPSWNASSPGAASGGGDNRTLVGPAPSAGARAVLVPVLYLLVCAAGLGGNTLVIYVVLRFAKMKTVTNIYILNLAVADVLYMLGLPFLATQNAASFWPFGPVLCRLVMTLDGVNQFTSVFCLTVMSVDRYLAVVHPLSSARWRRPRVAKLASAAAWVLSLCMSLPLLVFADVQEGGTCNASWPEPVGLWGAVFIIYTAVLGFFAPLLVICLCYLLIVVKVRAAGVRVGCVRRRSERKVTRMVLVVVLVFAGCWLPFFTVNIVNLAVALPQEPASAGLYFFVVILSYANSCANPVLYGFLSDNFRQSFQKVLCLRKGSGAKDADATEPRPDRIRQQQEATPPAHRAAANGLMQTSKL
Protocol: (§1) Radiolabeling binding assays were carried out as described in the prior art like, e.g. in Gazal S. et al (2002) J. Med. Chem. 45: 1665-1671. The radioligand binding assays were carried out on membranes prepared from CHO-K1 cells stably expressing individually cloned somatostatin receptors 2 or 5 (SSTR2 or SSTR5). Cells were grown for 2 days for almost confluence and were washed and scraped into 50 mM ice-cold Tris-HCl, pH 7.8, containing 1 mM EGTA, 5 mM MgCl2, […], 0.1 mM PMSF, and 0.5 mg/mL aprotinin (buffer A) and were centrifuged at 10,000 rpm for 10 min at 4° C. (in Sorvall RC 26 Plus ultracentrifuge, rotor SS-34). The pellet was resuspended in buffer A and homogenized with a Polytron PT 1200 homogenizer (Kinematica AG, Switzerland) (setting 2, 3 strokes 10 s each). The homogenate was then centrifuged at 20 000 rpm for 20 min at 4° C. The pellet was resuspended in buffer A and homogenized using the Polytron homogenizer (setting 2, 3 strokes 5 s each). The protein content was determined by Bradford, and the membrane preparation was diluted in buffer A containing 1 mg/mL bovine serum albumin (BSA) to a final 0.2 or 0.4 mg/mL membrane protein (depending on the specific somatostatin receptor used).
(§2) The radioligand binding assay was performed in 96 well microtiter plates (Maxisorp plates, Nunc, Denmark). Cell membranes ([…] protein) were incubated with the various cyclized peptides indicated in Table 1 & 2, which comprised a lanthanide chelation unit, in a final volume of 250 μL, for 45 min. at room temperature in the presence or absence of competing peptides. Nonspecific binding was defined as the radioactivity remaining bound in the presence of […] somatostatin. At the end of the binding, reaction free radioligand was separated from bound Ligand by rapid filtration through UniFilter GF/C plates preincubated in a solution of 5 g/L polyethyleneimine and 1 g/L BSA. The filtration was performed in Filter-Mate Cell Harvester (Packard Instrument Company, U.S.A.). After filtration, the filters were washed several times with cold buffer A containing 1 mg/mL BSA and allowed to dry overnight at room temperature. Then, bound radioactivity was counted. The binding assays were performed in triplicate wells. Data from radioligand binding were used to generate inhibition curves, and IC50 values were determined for each of the tested peptides. The saturation binding data were analyzed by the method of Scatchard, and IC50 values are expressed as mean±SEM (standard error of the mean).

SSTR2 = SSTR2 (Homo sapiens, UniProt P30874); assay: Radioligand binding assay on membranes of CHO-K1 cells expressing SSTR2; conditions: membranes from CHO-K1 cells stably expressing cloned somatostatin receptor 2
SSTR2, sequence (P30874 whole entry): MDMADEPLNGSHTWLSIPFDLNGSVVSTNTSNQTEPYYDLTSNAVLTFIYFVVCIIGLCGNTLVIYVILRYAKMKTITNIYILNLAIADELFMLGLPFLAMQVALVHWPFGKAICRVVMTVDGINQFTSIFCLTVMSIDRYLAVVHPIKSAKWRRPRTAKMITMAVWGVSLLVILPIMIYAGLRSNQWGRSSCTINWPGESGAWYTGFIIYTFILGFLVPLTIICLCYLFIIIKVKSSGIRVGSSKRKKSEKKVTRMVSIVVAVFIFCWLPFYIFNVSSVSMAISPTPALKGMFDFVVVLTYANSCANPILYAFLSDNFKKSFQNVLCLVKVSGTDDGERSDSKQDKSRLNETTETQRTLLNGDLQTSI
Protocol: as §1, §2

somatostatin receptor 5 [1] = biological target: T1, somatostatin receptor 5 (UniProt P35346 1-364, limits assumed); assay: radioligand competition binding, membranes of CHO-K1 cells expressing SSTR5
T1 construct: whole, on cells; Assayed as membrane preparation of CHO-K1 cells stably expressing the cloned receptor; also called SSTR5; somatostatin receptor subtype 5
T1 sequence (P35346 whole entry): as the sequence (P35346 whole entry) above

somatostatin receptor 5 [2] = biological target: T1, somatostatin receptor 5; assay: ratio of IC50 on SSTR2 to IC50 on SSTR5 (reference SSTR2), radioligand competition binding on CHO-K1 membranes
somatostatin receptor 2 [3] = biological target: T2, somatostatin receptor 2 (UniProt P30874 1-369, limits assumed); assay: radioligand competition binding, membranes of CHO-K1 cells expressing SSTR2
T2 construct: whole, on cells; Assayed as membrane preparation of CHO-K1 cells stably expressing the cloned receptor; also called SSTR2; somatostatin receptor subtype 2
T2 sequence (P30874 whole entry): as the sequence (P30874 whole entry) above

somatostatin receptor 5 [4] = biological target: T1, somatostatin receptor 5; assay: ratio of IC50 on SSTR2 to IC50 on SSTR5 (reference SSTR2), radioligand competition binding on CHO-K1 membranes; remark: listed apart in the source
somatostatin receptor 5 [5] = biological target: T1, somatostatin receptor 5; assay: radioligand competition binding, membranes of CHO-K1 cells expressing SSTR5; remark: listed apart in the source
somatostatin receptor 2 [6] = biological target: T2, somatostatin receptor 2; assay: radioligand competition binding, membranes of CHO-K1 cells expressing SSTR2; remark: listed apart in the source

Row | Molecule | IC50 (somatostatin receptor 5 [1]) [nM] | Ratio 2/5 in % (somatostatin receptor 5 [2]) [%] | IC50 (somatostatin receptor 2 [3]) [nM] | Ratio 2/5 in % (somatostatin receptor 5 [4]) [%] | further results
1 | CSCC[C@@H]1NC(=O)[C@H]([C@@H](C)O)NC(=O)[C@H](CCCCN)NC(=O)[C@@H](Cc2c[nH]c3ccccc23)NC(=O)[C@H](Cc2cccc3ccccc23)NC(=O)[C@H](Cc2ccccc2)N(C)C1=O [P2278, cyclo[(1)Nal-DTrp-Lys-Thr-Met-(NMe)Phe]] (cyclo([1Nal][dW]KTM[NMeF])) |  |  |  |  | IC50 (SSTR5): 1.59 nM; Ratio 2/5 in % (SSTR5): 27.9%; IC50 (SSTR2): 0.444 nM
2 | CSCC[C@@H]1NC(=O)[C@H](C(C)C)NC(=O)[C@H](CCCCN)NC(=O)[C@@H](Cc2c[nH]c3ccccc23)NC(=O)[C@H](Cc2ccc(O)cc2)NC(=O)[C@H](Cc2ccccc2)N(C)C1=O [P2266, cyclo[Tyr-DTrp-Lys-Val-Met-(NMe)Phe]] (cyclo(Y[dW]KVM[NMeF])) |  |  |  |  | IC50 (SSTR5): 8.12 nM; Ratio 2/5 in % (SSTR5): 3.2%; IC50 (SSTR2): 0.256 nM
3 | cyclo(Y[dW]K[Dap]M[NMeF]) (SMILES CSCC[C@@H]1NC(=O)[C@H](CN)NC(=O)[C@H](CCCCN)NC(=O)[C@@H](Cc2c[nH]c3ccccc23)NC(=O)[C@H](Cc2ccc(O)cc2)NC(=O)[C@H](Cc2ccccc2)N(C)C1=O, Cyclic hexapeptide; also called cyclo[Tyr-DTrp-Lys-Dpr-Met-(NMe)Phe]) [P2267] | 25.9 | 1.9 | 0.501 |  | 
4 | ReP2045 (thioether I:6-II:1 via CH2CO; not fully specified; also: head-to-tail to a chain's N/C-terminus, also called cyclo[Tyr-DTrp-Lys-Thr-Phe-(NMe)hCys]-CH2CO-βDpr-Phe(4-NH2)-Cys-Thr-Ser-OH-[R = 0]) peptide 1: Y[dW]KTF[NMehCys] peptide 2: [βDpr][Phe(4-NH2)]CTS-OH |  |  |  | 0.014 | IC50 (somatostatin receptor 5 [5]): 627 nM; IC50 (somatostatin receptor 2 [6]): 0.089 nM
5 | cyclo(Y[dW]K[βAla(cyclopropyl)]M[NMeF]) (Cyclic hexapeptide; also called cyclo[Tyr-DTrp-Lys-BAla(cyclopropyl)-Met-(N-Me)Phe]) [P2300] | 20.7 | 0.96 | 0.198 |  | 
6 | cyclo([1Nal][dW]KTK(GlyMeDOTA)[NMeF]) (Cyclic hexapeptide carrying a DOTA chelator on Lys 5; also called cyclo[1Nal-DTrp-Lys-Thr-Lys(GlyMeDOTA)-(N-Me)Phe]) [P2323] | 9.37 | 399 | 37.4 |  | 
7 | cyclo(Y[dW]KTM[Tpi]) (SMILES CSCC[C@@H]1NC(=O)[C@H]([C@@H](C)O)NC(=O)[C@H](CCCCN)NC(=O)[C@@H](Cc2c[nH]c3ccccc23)NC(=O)[C@H](Cc2ccc(O)cc2)NC(=O)[C@@H]2Cc3c([nH]c4ccccc34)CN2C1=O, Cyclic hexapeptide; also called cyclo[Tyr-DTrp-Lys-Thr-Met-Tpi]) [P2274] | 19.9 | 6.1 | 1.22 |  | 
8 | cyclo(Y[dW]KTF[NMehCys]) (SMILES C[C@@H](O)[C@@H]1NC(=O)[C@H](CCCCN)NC(=O)[C@@H](Cc2c[nH]c3ccccc23)NC(=O)[C@H](Cc2ccc(O)cc2)NC(=O)[C@H](CCS)N(C)C(=O)[C@H](Cc2ccccc2)NC1=O, Known somatostatin analogue tested as comparison; also called cyclo[Tyr-DTrp-Lys-Thr-Phe-(NMe)hCys]) [P1839] |  |  |  | 0.15 | 
9 | P2045 (thioether I:6-II:1 via CH2CO; also: head-to-tail to a chain's N/C-terminus, also called cyclo[Tyr-DTrp-Lys-Thr-Phe-(NMe)hCys]-CH2CO-βDpr-Phe(4-NH2)-Cys-Thr-Ser-OH) peptide 1: Y[dW]KTF[NMehCys] peptide 2: [βDpr][Phe(4-NH2)]CTS-OH |  |  |  | 0.084 | IC50 (somatostatin receptor 5 [5]): 249 nM; IC50 (somatostatin receptor 2 [6]): 0.21 nM
10 | cyclo(W[dW]KTM[NMeF]) (SMILES CSCC[C@@H]1NC(=O)[C@H]([C@@H](C)O)NC(=O)[C@H](CCCCN)NC(=O)[C@@H](Cc2c[nH]c3ccccc23)NC(=O)[C@H](Cc2c[nH]c3ccccc23)NC(=O)[C@H](Cc2ccccc2)N(C)C1=O, also called cyclo[Trp-DTrp-Lys-Thr-Met-(NMe)Phe]) [P2269] | 3.27 | 15.3 | 0.501 |  | 
